According to article PMC8065111 (Nature Communications, 2021):

Tests used:
[1] = molecular target: GST-IQGAP1-DBR (human) (UniProt P46940); assay: BLI; Octet RED96; GST-tagged ligands on GST biosensors; analyte 0.5 nM to 5 μM; PBS, 0.002% Tween-20, 0.1 mg/ml BSA; 30 °C; one site-specific binding, saturation curve
[2] = molecular target: DIAPH1 (Homo sapiens) (UniProt O60610); assay: BLI; conditions: cited from earlier work
[3] = molecular target: T1, MBP-CLIP170-NT (human); assay: BLI; individual test 2
T1 chain: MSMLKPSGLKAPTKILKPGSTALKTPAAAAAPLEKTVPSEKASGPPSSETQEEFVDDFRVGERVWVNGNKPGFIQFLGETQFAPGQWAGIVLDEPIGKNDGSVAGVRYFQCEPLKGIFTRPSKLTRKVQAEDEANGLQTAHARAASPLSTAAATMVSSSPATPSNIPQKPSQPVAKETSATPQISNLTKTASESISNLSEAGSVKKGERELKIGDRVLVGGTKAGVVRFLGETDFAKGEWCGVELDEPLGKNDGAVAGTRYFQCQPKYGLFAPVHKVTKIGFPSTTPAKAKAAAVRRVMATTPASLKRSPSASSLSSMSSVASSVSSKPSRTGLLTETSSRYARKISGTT

[4] = molecular target: T1, MBP-CLIP170-NT; assay: BLI; individual test 1
[5] = molecular target: T2, His6-DIAPH1-NT (human, UniProt O60610 1-575); assay: pull-down; 0.05 nmol GST-IQGAP1-DBR immobilised on GST beads, first partner equimolar 1 h, then second partner equimolar 1 h; 25 mM HEPES pH 7.5, 250 mM NaCl, 100 mM KCl, 0.5 mM beta-mercaptoethanol, 1 mM PMSF, 0.1% Triton X-100; 4 °C; anti-His6 and anti-MBP blots; conditions: both partners purified
T2 construct: human DIAPH1, N-terminal fragment, residues 1-575 of the 1272-residue protein; plasmid pET30a-DIAPH1-NT(1-575aa); Plasmid was a gift from J. Copeland; also called N-terminal fragment of DIAPH1; DIAPH1 N-terminal regulatory domains; source: E. coli BL21, purified (nickel-Sepharose)
T2 sequence (O60610 1-575): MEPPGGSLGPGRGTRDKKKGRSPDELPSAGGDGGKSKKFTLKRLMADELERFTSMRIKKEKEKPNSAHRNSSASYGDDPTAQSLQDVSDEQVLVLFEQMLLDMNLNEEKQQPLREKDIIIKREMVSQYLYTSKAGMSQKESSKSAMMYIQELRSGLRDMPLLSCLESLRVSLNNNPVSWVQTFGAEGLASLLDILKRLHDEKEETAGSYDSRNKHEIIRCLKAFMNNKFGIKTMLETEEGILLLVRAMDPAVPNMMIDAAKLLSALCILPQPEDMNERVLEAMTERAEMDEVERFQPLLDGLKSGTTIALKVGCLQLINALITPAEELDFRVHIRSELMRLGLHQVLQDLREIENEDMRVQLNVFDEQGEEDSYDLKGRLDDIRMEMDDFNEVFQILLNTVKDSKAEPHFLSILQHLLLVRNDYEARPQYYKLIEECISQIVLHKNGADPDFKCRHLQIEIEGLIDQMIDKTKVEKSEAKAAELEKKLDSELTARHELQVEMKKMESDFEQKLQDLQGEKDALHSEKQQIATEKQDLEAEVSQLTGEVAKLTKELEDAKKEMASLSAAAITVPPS

DIAPH1 (Homo sapiens), sequence (O60610 whole entry): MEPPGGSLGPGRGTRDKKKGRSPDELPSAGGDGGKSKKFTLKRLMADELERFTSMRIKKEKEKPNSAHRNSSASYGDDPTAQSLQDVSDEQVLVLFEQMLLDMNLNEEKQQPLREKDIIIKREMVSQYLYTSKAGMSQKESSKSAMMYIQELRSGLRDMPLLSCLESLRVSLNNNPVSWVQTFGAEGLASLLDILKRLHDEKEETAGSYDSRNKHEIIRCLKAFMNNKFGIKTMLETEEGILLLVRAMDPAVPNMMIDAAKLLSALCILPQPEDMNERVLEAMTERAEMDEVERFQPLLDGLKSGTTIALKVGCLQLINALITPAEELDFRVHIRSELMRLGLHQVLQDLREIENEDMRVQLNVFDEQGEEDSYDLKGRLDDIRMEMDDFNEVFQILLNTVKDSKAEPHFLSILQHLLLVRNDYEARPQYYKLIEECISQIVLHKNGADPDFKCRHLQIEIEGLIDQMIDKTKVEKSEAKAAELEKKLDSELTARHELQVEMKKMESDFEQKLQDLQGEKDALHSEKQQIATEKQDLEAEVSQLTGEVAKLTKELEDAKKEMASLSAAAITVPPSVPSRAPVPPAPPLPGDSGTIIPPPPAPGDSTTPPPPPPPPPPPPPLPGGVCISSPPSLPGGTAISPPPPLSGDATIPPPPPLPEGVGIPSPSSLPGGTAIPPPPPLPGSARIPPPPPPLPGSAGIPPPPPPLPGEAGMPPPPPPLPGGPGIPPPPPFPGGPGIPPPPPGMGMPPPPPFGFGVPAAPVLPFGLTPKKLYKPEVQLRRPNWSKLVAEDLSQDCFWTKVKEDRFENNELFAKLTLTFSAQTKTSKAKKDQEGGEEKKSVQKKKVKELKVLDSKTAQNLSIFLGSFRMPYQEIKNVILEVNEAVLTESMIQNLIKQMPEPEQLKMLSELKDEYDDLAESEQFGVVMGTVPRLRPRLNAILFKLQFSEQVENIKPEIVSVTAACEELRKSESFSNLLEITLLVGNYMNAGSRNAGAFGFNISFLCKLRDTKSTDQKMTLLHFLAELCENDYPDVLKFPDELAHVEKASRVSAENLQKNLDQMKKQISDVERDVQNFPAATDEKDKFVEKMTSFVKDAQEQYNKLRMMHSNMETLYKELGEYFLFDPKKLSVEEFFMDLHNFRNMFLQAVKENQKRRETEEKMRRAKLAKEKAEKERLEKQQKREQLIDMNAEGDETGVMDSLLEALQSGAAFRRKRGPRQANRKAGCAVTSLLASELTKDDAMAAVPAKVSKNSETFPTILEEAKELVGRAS

## MBP-CLIP170-NT (domain or fragment)
[1]
  Kd: 20.5 nM

## IQGAP1 (from UniProt P46940)
[2]
  Kd: 81.2 nM

B1: GST-IQGAP1-DBR (domain or fragment, human, UniProt P46940 1500-1657, looked up)
chain: KAELVKLQQTYAALNSKATFYGEQVDYYKSYIKTCLDNLASKGKVSKKPREMKGKKSKKISLKYTAARLHEKGVLLEIEDLQVNQFKNVIFEISPTEEVGDFEVKAKFMGVQMETFMLHYQDLLQLQYEGVAVMKLFDRAKVNVNLLIFLLNKKFYGK
notes: cloned into pDEST15; also called IQGAP-DBR; source: E. coli BL21, purified (glutathione beads)
[3]
  Kd: 15.6 nM
[4]
  Kd: 24.1 nM
[5]
  binding result: binds
